Substitutions are numbered along the chain they refer to.
B1: L16H16 phage-displayed Fab (Fab, V domains shown)
VH: QVQLQESGPGLVKPSGTLSLTCAVSGGSISSSNWWSWVRQPPGKGLEWIGEIYHSGSTNYNPSLKSRVTISVDKSKNQFSLKLSSVTAADTAVYYCARWTGRTDAFDIWGQGTMVTVSS
VL: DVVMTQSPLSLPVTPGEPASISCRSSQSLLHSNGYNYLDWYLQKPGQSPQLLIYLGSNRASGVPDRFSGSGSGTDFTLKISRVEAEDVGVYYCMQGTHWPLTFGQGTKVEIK
B2: L26H26 phage-displayed Fab (Fab, V domains shown)
VH: B1 VH with W99Y, T100S, G101Y, R102G, D104V, A105G, F106I, I108Y, M114L
VL: DVVMTQSPLSLPVTPGEPASISCRSSQSLLHSNGYTYLDWYLQKPGQSPQLLIYLGSNRASGVPDRFSGSGSGTDFTLKISRVEPEDVGVYYCMQALEMPLTFGGGTKVEIK
B3: L13H13 phage-displayed Fab (Fab, V domains shown)
VH: QVQLQESGPGLVKPSETLSLTCTVSGGSISSSNWWSWVRQPPGKGLEWIGEIYHSGSTNYNPSLKSRVTISVDKSKNQFSLKLSSVTAADTAVYYCAREGNRTVTSAFDIWGQGTMVTVSS
VL: not shown

target: T1, hu IGF-1R(ECD)-C3-muIgG1Fc (human; mouse, Glycosylated. 60% of the preparation was cleaved between the alpha and beta chains (RKRR, mature positions 708-711), which stay disulfide-linked; 40% was unprocessed. Dimer through the …); experiment: phage Fab ELISA, plate coated with IGF-1R-C3-mFc at 5 µg/ml
T1 construct: 60% of the product was processed into α and β chains, 40% unprocessed; also called IGF-1R(ECD)-C3-muFc; IGF-1R-C3-muFc
Experimental: (§1) In 96-well 2-ml deep-well blocks, 480 μl/well 2xYT-CG broth was inoculated with 20 μl of overnight cultures of the individual clones, then incubated at 37° C., 300 rpm for 3 hours. To each well, 50 μl of 1:3 diluted M13KO7 helper phage were added to infect the cells. The block was incubated at 37° C. without shaking for 30 minutes, and then shaken gently for another 30 minutes at 150 rpm. The block was centrifuged at 3600 rpm for 20 minutes to pellet the infected cells. The cell pellet in each well was suspended into 480 μl of 2xYT-CK (2xYT broth containing 100 μg/ml carbenicillin and 40 μg/ml kanamycin), and incubated at 30° C. overnight for about 20 hours. The cell debris was separated by centrifugation at 3600 rpm for 20 minutes. The rescued phage supernatant was used in the phage ELISA to check for IGF-1R-specific, INSR-cross reactive, or mouse Fc binding of individual clones.
(§2) The coated plates were washed 3× with 300 μl/well of PBS. The washed plates were blocked with 300 μl/well 2% MPBS at room temperature for one hour. Meanwhile, rescued phages of individual clones were pre-blocked by mixing 170 μl of rescued phage with 170 μl of 4% MPBS. The blocked plates were washed 5× with 300 μl/well TBST (TBS: 10 mM Tris-HCl, pH 7.5, 1 mM EDTA, 150 mM NaCl; Tween-20. 0.1%). 100 μl/well of pre-blocked phage dilutions were distributed to each set of coated plate, which were incubated at room temperature on a rocker for 90 minutes. The plates were washed 5× with 300 μl/well TBST. 100 μl/well of anti-M13-HRP in 2% MPBS (1:3000 dilution, catalog number 27-9421-01, Amersham Pharmacia Biotech) were distributed, and plates were incubated at room temperature on rocker for one hour. The plates were washed 5× with 300 μl/well TBST. 100 μl/well of the substrate 1-Step™ ABTS (Pierce Biotechnology, Rockford, Ill., catalog number 37615) were added. Plates were incubated for one hour. OD₄₀₅ was measured for signal detection.

| Binder | binding result |
| --- | --- |
| B1 | binds |
| B2 | binds |
| B3 | binds |

target: T2, hu INSR(ECD)-muIgG1Fc (human; mouse, Glycosylated. 87% of the preparation was cleaved between the alpha and beta chains (RKRR site), which stay disulfide-linked. Dimer through the receptor and the murine Fc.); experiment: phage Fab ELISA, plate coated with INSR-mFc at 5 µg/ml
T2 construct: 87% processed into α and β chains; also called INSR(ECD)-muFc; INSR-mFc
Experimental: as §1, §2

| Binder | binding result |
| --- | --- |
| B1 | no binding |
| B2 | no binding |
| B3 | no binding |

— US20140037642A1 (Amgen, published 2014)
